Biological target: Cohesin-human OX40 ectodomain protein (human) (UniProt P43489)
Experiment: SPR, antibody captured on protein A, soluble cohesin-human OX40 ectodomain injected

Chain of UniProt P43489 (P43489 26-211 limits assumed, form in doubt): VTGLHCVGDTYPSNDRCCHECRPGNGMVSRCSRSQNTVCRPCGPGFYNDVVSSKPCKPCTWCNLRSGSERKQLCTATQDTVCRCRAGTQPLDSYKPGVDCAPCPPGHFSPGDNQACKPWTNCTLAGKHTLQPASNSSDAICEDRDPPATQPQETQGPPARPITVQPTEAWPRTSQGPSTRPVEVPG

Kd: 131 nM
bracketed ratio of KD relative to Anti-OX40 IgG1: 1
bracketed ratio of Ka relative to Anti-OX40 IgG1: 1
bracketed ratio of kd relative to Anti-OX40 IgG1: 1
koff: 0.0019 s⁻¹
kon: 14000 M⁻¹ s⁻¹
B1: humanized anti OX40 Ab24 IgG1 (antibody, V domains shown)
VH: QVQLQESGPGLVKPSQTLSLTCAVYGGSFSSGYWNWIRKHPGKGLEYIGYISYNGITYHNPSLKSRITINRDTSKNQYSLQLNSVTPEDTAVYYCARYKYDYDGGHAMDYWGQGTLVTVSS
VL: DIQMTQSPSSLSASVGDRVTITCRASQDISNYLNWYQQKPGKAPKLLIYYTSKLHSGVPSRFSGSGSGTDYTLTISSLQPEDFATYYCQQGSALPWTFGQGTKVEIKR
